Test results reported in IntAct's records for PubMed 31515488.

B1: Pachytene checkpoint protein 2 homolog (Homo sapiens), Q15645 (parent)
chain: MDEAVGDLKQALPCVAESPTVHVEVHQRGSSTAKKEDINLSVRKLLNRHNIVFGDYTWTEFDEPFLTRNVQSVSIIDTELKVKDSQPIDLSACTVALHIFQLNEDGPSSENLEEETENIIAANHWVLPAAEFHGLWDSLVYDVEVKSHLLDYVMTTLLFSDKNVNSNLITWNRVVLLHGPPGTGKTSLCKALAQKLTIRLSSRYRYGQLIEINSHSLFSKWFSESGKLVTKMFQKIQDLIDDKDALVFVLIDEVESLTAARNACRAGTEPSDAIRVVNAVLTQIDQIKRHSNVVILTTSNITEKIDVAFVDRADIKQYIGPPSAAAIFKIYLSCLEELMKCQIIYPRQQLLTLRELEMIGFIENNVSKLSLLLNDISRKSEGLSGRVLRKLPFLAHALYVQAPTVTIEGFLQALSLAVDKQFEERKKLAAYI
B2: KH domain-containing, RNA-binding, signal transduction-associated protein 2 (Homo sapiens), Q5VWX1 (parent)
chain: MEEEKYLPELMAEKDSLDPSFVHASRLLAEEIEKFQGSDGKKEDEEKKYLDVISNKNIKLSERVLIPVKQYPKFNFVGKLLGPRGNSLKRLQEETGAKMSILGKGSMRDKAKEEELRKSGEAKYAHLSDELHVLIEVFAPPGEAYSRMSHALEEIKKFLVPDYNDEIRQEQLRELSYLNGSEDSGRGRGIRGRGIRIAPTAPSRGRGGAIPPPPPPGRGVLTPRGSTVTRGALPVPPVARGVPTPRARGAPTVPGYRAPPPPAHEAYEEYGYDDGYGGEYDDQTYETYDNSYATQTQSVPEYYDYGHGVSEDAYDSYAPEEWATTRSSLKAPPQRSARGGYREHPYGRY

Variants of: B1
Conditions: with meak7_human MEAK7, Q6P9B6
Sequence of meak7_human MEAK7, Q6P9B6 (Q6P9B6 whole entry): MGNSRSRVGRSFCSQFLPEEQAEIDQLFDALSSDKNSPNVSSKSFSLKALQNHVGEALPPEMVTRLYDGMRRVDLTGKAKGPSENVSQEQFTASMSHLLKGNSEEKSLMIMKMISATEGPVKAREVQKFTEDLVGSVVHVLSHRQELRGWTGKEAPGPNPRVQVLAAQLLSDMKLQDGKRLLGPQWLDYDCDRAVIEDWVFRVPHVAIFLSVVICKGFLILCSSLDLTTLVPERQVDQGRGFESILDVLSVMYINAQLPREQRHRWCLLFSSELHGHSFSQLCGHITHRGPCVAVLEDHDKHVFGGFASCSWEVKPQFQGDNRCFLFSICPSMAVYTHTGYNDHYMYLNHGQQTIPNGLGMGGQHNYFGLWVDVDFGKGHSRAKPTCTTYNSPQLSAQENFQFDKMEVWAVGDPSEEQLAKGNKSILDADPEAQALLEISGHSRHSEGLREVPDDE

| Variant | effect of a mutation on the interaction |
| --- | --- |
| MDEAVGDLKQALPCVAESPTVHVEVHQRGSSTAKKEDINLSVRKLLNRHNIVFGDYTWTEFDEPFLTRNVQSVSIIDTELKVKDSQPIDLSACTVALHIFQLNEDGPSSENLEEETENIIAANHWVLPAAEFHGLWDSLVYDVEVKSHLLDYVMTTLLFSDKNVNSNLITWNRVVLLHGPPGTGKTSLCKALAQKLTIRLSSRYRYGQLIEINSHSLFSKWFSESGKLVTKMFQKIQDLIDDKDALVFVLIDEVESLTAARNACRAGTEPSDAIRVVNAVLTQIDQIKRHSNVVILTTSNITEKIDVAFVDRADIKQYIGPPSAAAIFKIYLSCLEELMKCQIIYPRQQLLTLRELEMIGFIENNVSKLSLLLNDISRKSEGLSGRVLRKLPFLAHALYVQAPTVTIEEFLQALSLAVDKQFEERKKLAAYI [G409E] | with no effect |

Variants of: B1
Conditions: with fnd3b_human FNDC3B

| Variant | effect of a mutation on the interaction |
| --- | --- |
| MDEAVGDLKQALPCVAESPTVHVEVHQRGSSTAKKEDINLSVRKLLNRHNIVFGDYTWTEFDEPFLTRNVQSVSIIDTELKVKDSQPIDLSACTVALHIFQLNEDGPSSENLEEETENIIAANHWVLPAAEFHGLWDSLVYDVEVKSHLLDYVMTTLLFSDKNVNSNLITWNRVVLLHGPPGTGKTSLCKALAQKLTIRLSSRYRYGQLIEINSHSLFSKWFSESGKLVTKMFQKIQDLIDDKDALVFVLIDEVESLTAARNACRAGTEPSDAIRVVNAVLTQIDQIKRHSNVVILTTSNITEKIDVAFVDRADIKQYIGPPSAAAIFKIYLSCLEELMKCQIIYPRQQLLTLRELEMIGFIENNVSKLSLLLNDISRKSEGLSGRVLRKLPFLAHALYVQAPTVTIEEFLQALSLAVDKQFEERKKLAAYI [G409E] | with no effect |

Variants of: B2
Conditions: with ews_human EWSR1, Q01844
Sequence of ews_human EWSR1, Q01844 (Q01844 whole entry): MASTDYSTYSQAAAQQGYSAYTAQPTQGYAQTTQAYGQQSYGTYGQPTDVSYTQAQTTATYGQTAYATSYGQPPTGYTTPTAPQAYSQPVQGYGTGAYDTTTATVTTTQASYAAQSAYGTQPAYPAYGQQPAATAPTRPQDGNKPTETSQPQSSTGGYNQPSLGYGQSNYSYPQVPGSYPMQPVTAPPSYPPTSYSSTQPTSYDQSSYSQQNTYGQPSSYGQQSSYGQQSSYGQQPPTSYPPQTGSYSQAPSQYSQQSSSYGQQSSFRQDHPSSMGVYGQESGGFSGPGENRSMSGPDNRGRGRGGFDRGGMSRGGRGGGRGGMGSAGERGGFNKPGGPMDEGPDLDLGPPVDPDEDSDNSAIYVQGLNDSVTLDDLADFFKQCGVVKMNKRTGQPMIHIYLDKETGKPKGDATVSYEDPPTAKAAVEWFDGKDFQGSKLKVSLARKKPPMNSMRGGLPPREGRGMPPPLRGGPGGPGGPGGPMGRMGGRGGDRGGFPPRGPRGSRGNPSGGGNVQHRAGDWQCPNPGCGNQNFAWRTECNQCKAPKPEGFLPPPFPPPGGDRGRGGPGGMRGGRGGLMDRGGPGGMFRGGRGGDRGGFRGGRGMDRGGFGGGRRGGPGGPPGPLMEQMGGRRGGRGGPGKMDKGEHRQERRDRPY

| Variant | effect of a mutation on the interaction |
| --- | --- |
| MEEEKYLPELMAEKDSLDPSFVHASRLLAEEIEKFQGSDGKKEDEEKKYLDVISNKNIKLSERVLIPVKQYPKFNFVGKLLGPRGNSLKRLQEETGAKMSILGKGSMRDKAKEEELRKSGEAKYAHLSDELHVLIEVFAPPGEAYSRMSHALEEIKKFLVPDYNDEIRQEQLRELSYLNGSEDSGRGRGIRGRGIRIAPTAPSRGRGGAIPPPPPPGRGVLTPRGSTVTRGALPVPPVARGVPTPRARGAPTVPGYRAPPPPAHEAYEEYGYDDGYGGEYDDQTYETYDNSYATQTQSVPEYYDYGHGVSEDAYDSYAPEEWATTRSSLKAPLQRSARGGYREHPYGRY [P333L] | with no effect |

Variants of: B2
Conditions: with ptk6_human PTK6, Q13882

| Variant | effect of a mutation on the interaction |
| --- | --- |
| MEEEKYLPELMAEKDSLDPSFVHASRLLAEEIEKFQGSDGKKEDEEKKYLDVISNKNIKLSERVLIPVKQYPKFNFVGKLLGPRGNSLKRLQEETGAKMSILGKGSMRDKAKEEELRKSGEAKYAHLSDELHVLIEVFAPPGEAYSRMSHALEEIKKFLVPDYNDEIRQEQLRELSYLNGSEDSGRGRGIRGRGIRIAPTAPSRGRGGAIPPPPPPGRGVLTPRGSTVTRGALPVPPVARGVPTPRARGAPTVPGYRAPPPPAHEAYEEYGYDDGYGGEYDDQTYETYDNSYATQTQSVPEYYDYGHGVSEDAYDSYAPEEWATTRSSLKAPLQRSARGGYREHPYGRY [P333L] | with no effect |

Variants of: B2
Conditions: with hbaz_human HBZ

| Variant | effect of a mutation on the interaction |
| --- | --- |
| MEEEKYLPELMAEKDSLDPSFVHASRLLAEEIEKFQGSDGKKEDEEKKYLDVISNKNIKLSERVLIPVKQYPKFNFVGKLLGPRGNSLKRLQEETGAKMSILGKGSMRDKAKEEELRKSGEAKYAHLSDELHVLIEVFAPPGEAYSRMSHALEEIKKFLVPDYNDEIRQEQLRELSYLNGSEDSGRGRGIRGRGIRIAPTAPSRGRGGAIPPPPPPGRGVLTPRGSTVTRGALPVPPVARGVPTPRARGAPTVPGYRAPPPPAHEAYEEYGYDDGYGGEYDDQTYETYDNSYATQTQSVPEYYDYGHGVSEDAYDSYAPEEWATTRSSLKAPLQRSARGGYREHPYGRY [P333L] | with no effect |
